# Assay results published in paper PMC10000386.
# Changes are numbered by the printed parent chain. Numbers in names are those of the source.
# T1: Bak ΔBH3, Q16611
# T1 chain: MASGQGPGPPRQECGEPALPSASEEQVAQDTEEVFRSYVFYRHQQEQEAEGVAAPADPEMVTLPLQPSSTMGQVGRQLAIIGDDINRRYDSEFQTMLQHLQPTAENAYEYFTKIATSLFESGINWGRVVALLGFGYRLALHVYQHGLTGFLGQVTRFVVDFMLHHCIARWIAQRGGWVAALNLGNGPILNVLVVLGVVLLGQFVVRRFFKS
# B1: Bak, Q16611 H164A (protein)
# chain: T1 chain with H164A
# Target: T1, Bak ΔBH3, Q16611
# Assay: BiFC (flow cytometry)
# Details: chain shown with the change; 6 independent experiments; read off a plot
binder,measurement,value
B1,response (Mean Venus/Mean mRFP),0.95
